# Laboratory results taken from US20190330277A1.
# Experiments:
# [1] = target: bRSV RB94 DSCav1 (bovine respiratory syncytial virus, strain RB94) (UniProt P23728); assay: biolayer interferometry (Octet), variant on Ni-NTA tip, Fab in solution
# [2] = target: bRSV RB94 DSCav1 (bovine respiratory syncytial virus, strain RB94) (UniProt P23728); assay: biolayer interferometry Octet binding analysis
# [3] = target: bRSV RB94 DSCav1 (bovine respiratory syncytial virus, strain RB94) (UniProt P23728)
# [4] = target: 391-2-DS-Cav1-sc9 99C-361C; assay: ELISA, variant from culture supernatant on Ni-NTA plate; further: unit not given here
# [5] = target: 391-2-DS-Cav1-sc9deleteFS 98C-362C; assay: as above
# [6] = target: 391-2-DS-Cav1-sc9 99C-362C; assay: as above
# [7] = target: 391-2 sc9 DS-Cav1 98C-362C; assay: as above
# [8] = target: RB94 sc9 DS-CAV1 N183GC-N428C L373R Long K226L; assay: as above
# [9] = target: RB94 sc9 DS-CAV1 N183GC-N428C L373R Long; assay: as above
# [10] = target: 391-2-DS-Cav1-sc9 100C-362C; assay: as above; further: unit not given here
# [11] = target: 391-2-DS-Cav1_ sc9_I28C-G464C; assay: as above
# [12] = target: RB94 sc9 DS-CAV1 N183GC-N428C L373R; assay: as above
# [13] = target: 391-2-DS-Cav1-BZGJ9deleteFS; assay: ELISA, variant from culture supernatant on Ni-NTA plate [continued]
# MPE8 antibody, sequence (VH): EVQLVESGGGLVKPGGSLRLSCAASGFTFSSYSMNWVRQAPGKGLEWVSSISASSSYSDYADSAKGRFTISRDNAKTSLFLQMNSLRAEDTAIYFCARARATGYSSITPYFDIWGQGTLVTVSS
# MPE8 antibody, sequence (VL): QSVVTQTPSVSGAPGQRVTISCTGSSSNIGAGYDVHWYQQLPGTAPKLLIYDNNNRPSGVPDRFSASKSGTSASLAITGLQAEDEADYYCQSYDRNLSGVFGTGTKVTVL
substance,measurement,setting,value
motavizumab Fab,Kd,[1],0.9 nM
MPE8 antibody,response level (biolayer interferometry),[2],0.5 nm
same,ELISA binding value,[3],0.199
same,ELISA binding value,[4],0.198
same,ELISA binding value,[5],0.448
same,ELISA binding value,[6],0.311
same,ELISA binding value,[7],0.48
same,ELISA binding value,[8],0.293
same,ELISA binding value,[9],0.335
same,ELISA binding value,[10],0.131
same,ELISA binding value,[11],0.203
same,ELISA binding value,[12],0.322
same,ELISA binding value,[13],0.0675
MPE8 Fab,Kd,[1],0.2 nM
AM14 Fab,Kd,[1],4.9 nM
